The values that follow come from patent US20220305006A1, “COMPOSITIONS AND METHODS FOR THE TREATMENT OF NEUROLOGICAL DISEASES AND DISORDERS” (The Regents of the University of California, priority 2019, published 2022).

Common to all, as to test: cell-based or functional assay
The target of experiment [1] is Recombinant Human Cathepsin D (human) (UniProt P07339).
The target in experiment [2] is BACE1 expressed from a transfected plasmid in 293T cells (NRG1 and PSGL1 assays).
Experiment [3] has as its target BACE in CHO-7W cells (Chinese hamster ovary cells stably transfected with wildtype human APP).

Chain of Recombinant Human Cathepsin D (human) (P07339 65-412): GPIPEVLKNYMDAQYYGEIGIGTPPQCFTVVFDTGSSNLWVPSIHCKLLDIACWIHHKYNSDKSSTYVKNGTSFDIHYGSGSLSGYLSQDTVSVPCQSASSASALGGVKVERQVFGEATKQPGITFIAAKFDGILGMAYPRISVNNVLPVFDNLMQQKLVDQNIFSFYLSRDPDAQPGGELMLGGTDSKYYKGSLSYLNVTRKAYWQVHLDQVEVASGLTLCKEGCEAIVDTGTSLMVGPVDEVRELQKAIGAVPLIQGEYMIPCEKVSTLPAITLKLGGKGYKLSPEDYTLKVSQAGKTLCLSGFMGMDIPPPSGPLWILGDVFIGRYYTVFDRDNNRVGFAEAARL

Consider “BACE inhibitor 1 (statine BACE inhibitor 1) (peptide)”, for which the Cat D activity (fluorogenic substrate), IC50 in experiment [1] was under 0.01 µM. Further, in experiment [2], the NRG1 cleavage by BACE in co-transfected 293T cells (secreted alkaline phosphatase), EC50 was over 10 µM and the PSGL1 cleavage by BACE in co-transfected 293T cells (secreted alkaline phosphatase), EC50 is over 10 µM.
In turn, “recombinant sAPPα, human, amino acids 19-613 (from UniProt P05067 19-613)” showed a decrease of BACE cleavage product sAPPβ from CHO-7W cells, EC50 in experiment [3] of under 5 µM. Further, in experiment [2], the NRG1 cleavage by BACE in co-transfected 293T cells (secreted alkaline phosphatase), EC50 is over 10 µM and the PSGL1 cleavage by BACE in co-transfected 293T cells (secreted alkaline phosphatase), EC50 is over 10 µM.
